According to article PMC4361889:

Target: Taliglucerase alfa (recombinant GCase) (human) (UniProt P04062)
Assay: AUC

Taliglucerase alfa (recombinant GCase) (from UniProt P04062 40-536) (enzyme)
population of the dimer species: 47%
stoichiometry N: 2
